Here are results for three molecules from patent US20090291895A1 (published 2009).

Assay [1] has as its target T1, purified recombinant MPV vCCI (monkeypox virus viral CC-chemokine inhibitor, product of MPV ORF-[cha (monkeypox virus, UniProt P0DTM9 17-246)). Kind of assay: mobility shift assay.
Assay [2] concerns the target T1, purified recombinant MPV vCCI …. Kind of assay: native PAGE mobility shift (1:1 molar ratio); co-immunoprecipitation.

B1: mouse MIP-1alpha (ligand)
chain: APYGADTPTACCFSYSRKIPRQFIVDYFETSSLCSQPGVIFLTKRNRQICADSKETWVQEYITDLELNA
With B1, the binding result in assay [1] was “binds”.

B2: mouse MCP-1 (ligand)
chain: not shown
As to B2, the binding result in assay [1] is “binds”.

B3: purified recombinant 6x-histidine tagged rhesus MIP-1alpha (ligand)
chain: ADTPTSCCFSYISRQIPQNFIADYFETNSQCSKPGVIFLTKRGRQVCADPSKEWVQKYVSDLELSAHHHHHH
notes: also called rhMIP-1α; rhMIP1α
As to B3, in assay [2], the binding result is given as “binds”.
